Data as given in patent publication US20140087991A1, “PEPTIDE PRODRUGS” (The Johns Hopkins University, priority 2006, published 2014).

Target: T1, FAP (Homo sapiens, UniProt Q12884)
T1 construct: the extracellular domain of FAP was cloned with a His-6 tag; made in house
T1 sequence (Q12884 26-760 limits assumed): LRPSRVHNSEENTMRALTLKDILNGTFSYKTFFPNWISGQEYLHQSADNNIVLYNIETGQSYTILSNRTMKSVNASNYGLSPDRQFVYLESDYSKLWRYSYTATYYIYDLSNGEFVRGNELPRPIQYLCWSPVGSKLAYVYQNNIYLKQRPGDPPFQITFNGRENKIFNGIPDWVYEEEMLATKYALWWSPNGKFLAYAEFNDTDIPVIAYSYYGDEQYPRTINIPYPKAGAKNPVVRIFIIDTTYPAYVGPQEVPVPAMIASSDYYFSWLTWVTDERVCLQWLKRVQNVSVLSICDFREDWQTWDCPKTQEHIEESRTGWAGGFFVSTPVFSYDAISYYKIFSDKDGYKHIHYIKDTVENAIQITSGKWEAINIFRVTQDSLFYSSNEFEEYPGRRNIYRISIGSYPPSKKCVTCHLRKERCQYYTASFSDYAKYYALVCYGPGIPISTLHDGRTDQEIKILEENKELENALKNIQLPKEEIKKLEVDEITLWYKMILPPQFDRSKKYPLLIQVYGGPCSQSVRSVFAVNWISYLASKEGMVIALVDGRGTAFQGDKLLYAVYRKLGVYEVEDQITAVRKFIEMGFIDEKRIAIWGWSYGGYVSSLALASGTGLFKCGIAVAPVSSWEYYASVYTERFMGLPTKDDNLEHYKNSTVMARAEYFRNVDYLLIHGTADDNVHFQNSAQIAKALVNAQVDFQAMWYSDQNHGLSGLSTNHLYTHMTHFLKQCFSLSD
Experiment: LC-MS/MS cleavage map of FAP digest of 100 kDa recombinant human gelatin
Format: biochemical
Settings: 100 kDa gelatin digest; for Percentage: share of all occurrences
Method: Human collagen I (Becton Dickinson, Franklin Lakes, N.J.) and recombinant human gelatins of 100 KDa and 8.5 KDa (Fibrogen, San Francisco, Calif.) were dissolved in reaction buffer to a final concentration of 100-300 μg/ml. 0.5-1 μg of FAP was added per 100 μgs of protein substrate. Digestion was done for 4-6 hrs at 37° C. As a positive control trypsin digestion was used. As a negative control, protein solutions were incubated either with BSA or buffer only. Peptide fragments of a size <30 KDa were purified using 30 KDa Microcon spin filter (Millipore, Billerica, Mass.).
Peptides obtained from FAP/gelatin digests were dried using a speedvac (Eppendorf), resuspended in LC/MS loading buffer (3% ACN, 0.1% formic acid), and analyzed using nano-flow LC/MS/MS on an Agilent 1100 series nano-LC system (Agilent) coupled to an LCQ Duo ion trap mass spectrometer (ThermoFinnigan). Peptides were pre-concentrated on a 5 mm Zorbax C18 trap column (Agilent) and then eluted onto a 100×0.075 mm custom-packed Biobasic C18 (ThermoElectron) reversed phase capillary column connected to a laser-pulled electrospray ionization emitter tip (New Objective) at a flowrate of 300 nl/min Peptides were eluted the nanospray source of the LCQ (Proxeon, Denmark) using the following gradient: 0% B at 0 min, 5% B at 8 min, 45% B at 50 min, 90% B at 55 min, 90% B at 60 min (B=0.1% formic acid in acetonitrile) at a spray voltage of 2.5 kV. The LCQ was operated in data-dependent mode using the Xcalibur software (ThermoFinnigan) in which every MS scan (400-1800 m/z) was followed by MS/MS scans (400-1800 m/z) on the 3 most intense ions using an isolation window of ±1.5 Da. Ions selected for MS/MS fragmentation were dynamically excluded for 30 s.
MS/MS data were searched against a collagen FASTA database using the SEQUEST search algorithm built into the Bioworks Browser (ThermoFinnigan) allowing for the variable modification of Methionine oxidation. Peptides were initially filtered in a charge dependent manner using an XCorr filter of 1.5, 2, and 2.5 for singly, doubly, and triply charged peptides. All MS/MS spectra used to identify peptides were manually inspected for validation of y and b-ion series. To quantify the relative abundance of each identified peptide we compared the ion current for each of the observed peptide parent ions from the MS spectra. The contribution of each parent ion to the total ion current was extracted and integrated over the peptide elution peak.
To resolve each particular mass fragment a Liquid Chromatograpy (LC) and Tandem mass spectroscopy (MS-MS) [LC-MS-MS] method was developed. Using this method, peptide fragments from FAP digests of the 8.5 kDa and 100 kDa recombinant gelatin were time-resolved by nano reverse phase LC (FIGS. 12 and 14) and then sequenced using an ion trap mass spectrometer operating in MS/MS mode. Initial methodological issues were worked out using the 8.5 kDa fragment before analyzing the entire 100 kDa protein. MS/MS spectra were searched against the 8.5 kDa and 100 kDa gelatin sequences using the SEQUEST algorithm with no cleavage specificity. Most of the identified cleavage sites in both sized gelatins occurred after Proline. However, FAP cleavage sites in these gelatins were not restricted to Proline alone. FAP was also found to cleave after Ala (e.g. A/A, A/G, A/P, A/R), Asp (e.g. D/G, D/T), Gly (e.g. G/A, G/E, G/L, G/Q, G/P, G/V), Glu (i.e., E/P), Lys (i.e., K/A, K/G), Ser (e.g. S/P) and Val (e.g. V/G).
To identify the most preferentially cleaved sites, we relatively quantified the abundance of each of the identified peptides by integrating the ion current generated by each peptide throughout the chromatogram. After identification of a peptide from a MS/MS spectrum, we extracted the ion current for the parent mass of the ion from the total MS ion chromatogram using a 1.5 Da tolerance window, and then integrated under the peak (FIGS. 12 and 14). […]

Row | Substance | Occurences | Percentage | relative abundance of fragment by integrated ion current
1 | P.AGFAGPPGADGQPGAKGEPGDAGAKGDAGPPGP.A: FAP cleavage fragment, 100 kDa recombinant human gelatin | 8 | 3.81 | 
2 | P.SGEPGKQGPSGASGERGPPGP.M: FAP cleavage fragment, 100 kDa recombinant human gelatin | 4 | 1.90 | 
3 | P.QGVRGEPGPPGP.A: FAP cleavage fragment, 100 kDa recombinant human gelatin | 3 | 1.43 | 
4 | E.PGKQGPSGASGERGPPGP.M: FAP cleavage fragment, 100 kDa recombinant human gelatin | 5 | 2.38 | 
5 | P.GGPPGPKGNSGEPGAPGSKGD.T: FAP cleavage fragment, 100 kDa recombinant human gelatin | 1 | 0.48 | 
6 | G.PPGPAGAPGDK.G: FAP cleavage fragment, 100 kDa recombinant human gelatin | 2 | 0.95 | 
7 | A.GPPGAPGAPGAPGP.V: FAP cleavage fragment, 100 kDa recombinant human gelatin | 1 | 0.48 | 
8 | P.VGVQGPPGP.A: FAP cleavage fragment, 100 kDa recombinant human gelatin | 3 | 1.43 | 
9 | A.PGDKGESGP.S: FAP cleavage fragment, 100 kDa recombinant human gelatin | 2 | 0.95 | 
10 | A.GPAGPPGP.I: FAP cleavage fragment, 100 kDa recombinant human gelatin | 1 | 0.48 | 
11 | P.TGARGAPGDRGEPGPPGP.A: FAP cleavage fragment, 100 kDa recombinant human gelatin | 13 | 6.19 | 
12 | P.AGPPGAPGAPGAPGPVGP.A: FAP cleavage fragment, 100 kDa recombinant human gelatin | 2 | 0.95 | 
13 | G.PPGPAGPAGPPGP.I: FAP cleavage fragment, 100 kDa recombinant human gelatin | 1 | 0.48 | 
14 | D.GQPGAKGEPGDAGAKGDAGPPGP.A: FAP cleavage fragment, 100 kDa recombinant human gelatin | 2 | 0.95 | 
15 | P.VGPPGPPGPPGPPGPP.: C-terminal FAP cleavage fragment, 100 kDa recombinant human gelatin (PVGPPGPPGPPGPPGPP) | 19 | 9.05 | most abundantly identified fragment
16 | A.PGAPGAPGPVGPAGKSGDRGETGP.A: FAP cleavage fragment, 100 kDa recombinant human gelatin | 4 | 1.90 | 

Second part, led by results:

Row | Occurences | Percentage | Substance | relative abundance of fragment by integrated ion current
17 | 6 | 2.86 | P.AGPPGEAGKPGEQGVPGDLGAPGP.S: FAP cleavage fragment, 100 kDa recombinant human gelatin | 
18 | 2 | 0.95 | P.PGPAGAPGDKGESGP.S: FAP cleavage fragment, 100 kDa recombinant human gelatin | 
19 | 2 | 0.95 | A.AGRVGPPGP.S: FAP cleavage fragment, 100 kDa recombinant human gelatin | 
20 | 3 | 1.43 | P.AGPPGPIGNVGAPGAKGARGSAGPPGATGFPGAAGRVGPPGP.S: FAP cleavage fragment, 100 kDa recombinant human gelatin | 
21 | 7 | 3.33 | P.AGEKGSPGADGPAGAPGTPGP.Q: FAP cleavage fragment, 100 kDa recombinant human gelatin | 
22 | 8 | 3.81 | P.AGPPGAPGAPGAPGP.V: FAP cleavage fragment, 100 kDa recombinant human gelatin | 
23 | 1 | 0.48 | P.AGPKGEPGSPGENGAPG.Q: FAP cleavage fragment, 100 kDa recombinant human gelatin | 
24 | 2 | 0.95 | P.AGPPGFPGAVGAKGEAGP.Q: FAP cleavage fragment, 100 kDa recombinant human gelatin | 
25 | 2 | 0.95 | A.PGAPGPVGPAGKSGDRGETGP.A: FAP cleavage fragment, 100 kDa recombinant human gelatin | 
26 | 14 | 6.67 | P.RGPPGSAGAPGKDGLNGLPGP.I: FAP cleavage fragment, 100 kDa recombinant human gelatin | 
27 | 1 | 0.48 | G.PSGEPGKQGPSGASGERGPPGP.M: FAP cleavage fragment, 100 kDa recombinant human gelatin | 
28 | 1 | 0.48 | P.GPPGAPGP.Q: FAP cleavage fragment, 100 kDa recombinant human gelatin | 
29 | 1 | 0.48 | P.GPSGNAGPPGPP.G: FAP cleavage fragment, 100 kDa recombinant human gelatin | 
30 | 2 | 0.95 | D.GRPGPPGPPGARGQAG.V: FAP cleavage fragment, 100 kDa recombinant human gelatin | 
31 | 4 | 1.90 | P.AGNPGADGQPGAKGANGAPGIAGAPGFPGARGP.S: FAP cleavage fragment, 100 kDa recombinant human gelatin | 
32 | 3 | 1.43 | P.VGPPGPPGPP.G: FAP cleavage fragment, 100 kDa recombinant human gelatin | 
33 | 2 | 0.95 | P.PGAPGAPGAPGPVGPAGKSGDRGETGP.A: FAP cleavage fragment, 100 kDa recombinant human gelatin | 
34 | 3 | 1.43 | G.PPGPAGAPGDKGESGP.S: FAP cleavage fragment, 100 kDa recombinant human gelatin | 
35 | 6 | 2.86 | P.AGPTGARGAPGDRGEPGPPGP.A: FAP cleavage fragment, 100 kDa recombinant human gelatin | 
